Data reported in patent US20120201746A1.

Target: Neonatal Fc receptor (FcRn) on CHO-FcRnGPI cells
Test: flow cytometry on CHO-FcRnGPI cells, pH 6.4

Sequence of Neonatal Fc receptor (FcRn) on CHO-FcRnGPI cells (P55899 24-297, chain 1 of 2): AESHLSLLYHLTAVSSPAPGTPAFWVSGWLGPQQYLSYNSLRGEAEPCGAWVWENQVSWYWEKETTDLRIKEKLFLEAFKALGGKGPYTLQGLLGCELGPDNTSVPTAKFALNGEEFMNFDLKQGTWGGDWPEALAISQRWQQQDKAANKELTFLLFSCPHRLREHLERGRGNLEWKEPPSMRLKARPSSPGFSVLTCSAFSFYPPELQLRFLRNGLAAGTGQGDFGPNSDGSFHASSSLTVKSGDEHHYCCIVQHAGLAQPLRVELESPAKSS
Sequence of Neonatal Fc receptor (FcRn) on CHO-FcRnGPI cells (P61769 21-119, chain 2 of 2, further chain): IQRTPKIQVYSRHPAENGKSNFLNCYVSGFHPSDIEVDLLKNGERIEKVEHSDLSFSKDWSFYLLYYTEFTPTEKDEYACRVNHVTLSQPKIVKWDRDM

## Control mAb (antibody)
  EC50: 50.4 nM
